Test results reported in patent publication US20060058231A1 (Xencor, published 2006).

B1: BMP-7 variant W55N (ligand)
chain: STGGKQRSQNRSKTPKNQEALRMASVAENSSSDQRQACKKHELYVSFRDLGWQDNIIAPEGYAAYYCEGECAFPLNSYMNATNHAIVQTLVHFINPETVPKPCCAPTQLNAISVLYFDDSSNVILKKYRNMVVRACGCH
notes: In conditioned media; numbering on mature BMP-7
B2: BMP-7 variant Q53A (ligand)
chain: STGGKQRSQNRSKTPKNQEALRMASVAENSSSDQRQACKKHELYVSFRDLGWADWIIAPEGYAAYYCEGECAFPLNSYMNATNHAIVQTLVHFINPETVPKPCCAPTQLNAISVLYFDDSSNVILKKYRNMVVRACGCH
B3: BMP-7 variant K39D (ligand)
chain: STGGKQRSQNRSKTPKNQEALRMASVAENSSSDQRQACDKHELYVSFRDLGWQDWIIAPEGYAAYYCEGECAFPLNSYMNATNHAIVQTLVHFINPETVPKPCCAPTQLNAISVLYFDDSSNVILKKYRNMVVRACGCH
B4: BMP-7 variant E60S (ligand)
chain: STGGKQRSQNRSKTPKNQEALRMASVAENSSSDQRQACKKHELYVSFRDLGWQDWIIAPSGYAAYYCEGECAFPLNSYMNATNHAIVQTLVHFINPETVPKPCCAPTQLNAISVLYFDDSSNVILKKYRNMVVRACGCH
B5: BMP-7 variant R134L (ligand)
chain: STGGKQRSQNRSKTPKNQEALRMASVAENSSSDQRQACKKHELYVSFRDLGWQDWIIAPEGYAAYYCEGECAFPLNSYMNATNHAIVQTLVHFINPETVPKPCCAPTQLNAISVLYFDDSSNVILKKYRNMVVLACGCH
B6: BMP-7 variant K39T (ligand)
chain: STGGKQRSQNRSKTPKNQEALRMASVAENSSSDQRQACTKHELYVSFRDLGWQDWIIAPEGYAAYYCEGECAFPLNSYMNATNHAIVQTLVHFINPETVPKPCCAPTQLNAISVLYFDDSSNVILKKYRNMVVRACGCH
B7: BMP-7 variant Y78H (ligand)
chain: STGGKQRSQNRSKTPKNQEALRMASVAENSSSDQRQACKKHELYVSFRDLGWQDWIIAPEGYAAYYCEGECAFPLNSHMNATNHAIVQTLVHFINPETVPKPCCAPTQLNAISVLYFDDSSNVILKKYRNMVVRACGCH
notes: as for B1
B8: BMP-7 variant Y78S (ligand)
chain: STGGKQRSQNRSKTPKNQEALRMASVAENSSSDQRQACKKHELYVSFRDLGWQDWIIAPEGYAAYYCEGECAFPLNSSMNATNHAIVQTLVHFINPETVPKPCCAPTQLNAISVLYFDDSSNVILKKYRNMVVRACGCH
notes: as for B1
B9: BMP-7 variant Y44T (ligand)
chain: STGGKQRSQNRSKTPKNQEALRMASVAENSSSDQRQACKKHELTVSFRDLGWQDWIIAPEGYAAYYCEGECAFPLNSYMNATNHAIVQTLVHFINPETVPKPCCAPTQLNAISVLYFDDSSNVILKKYRNMVVRACGCH
notes: as for B1
B10: BMP-7 variant K126G (ligand)
chain: STGGKQRSQNRSKTPKNQEALRMASVAENSSSDQRQACKKHELYVSFRDLGWQDWIIAPEGYAAYYCEGECAFPLNSYMNATNHAIVQTLVHFINPETVPKPCCAPTQLNAISVLYFDDSSNVILGKYRNMVVRACGCH
B11: BMP-7 variant Y44N (ligand)
chain: STGGKQRSQNRSKTPKNQEALRMASVAENSSSDQRQACKKHELNVSFRDLGWQDWIIAPEGYAAYYCEGECAFPLNSYMNATNHAIVQTLVHFINPETVPKPCCAPTQLNAISVLYFDDSSNVILKKYRNMVVRACGCH
notes: as for B1
B12: BMP-7 variant Y78R (ligand)
chain: STGGKQRSQNRSKTPKNQEALRMASVAENSSSDQRQACKKHELYVSFRDLGWQDWIIAPEGYAAYYCEGECAFPLNSRMNATNHAIVQTLVHFINPETVPKPCCAPTQLNAISVLYFDDSSNVILKKYRNMVVRACGCH
notes: as for B1
B13: BMP-7 variant Y78D (ligand)
chain: STGGKQRSQNRSKTPKNQEALRMASVAENSSSDQRQACKKHELYVSFRDLGWQDWIIAPEGYAAYYCEGECAFPLNSDMNATNHAIVQTLVHFINPETVPKPCCAPTQLNAISVLYFDDSSNVILKKYRNMVVRACGCH
notes: as for B1
B14: BMP-7 variant Y78T (ligand)
chain: STGGKQRSQNRSKTPKNQEALRMASVAENSSSDQRQACKKHELYVSFRDLGWQDWIIAPEGYAAYYCEGECAFPLNSTMNATNHAIVQTLVHFINPETVPKPCCAPTQLNAISVLYFDDSSNVILKKYRNMVVRACGCH
notes: as for B1
B15: BMP-7 variant W55R (ligand)
chain: STGGKQRSQNRSKTPKNQEALRMASVAENSSSDQRQACKKHELYVSFRDLGWQDRIIAPEGYAAYYCEGECAFPLNSYMNATNHAIVQTLVHFINPETVPKPCCAPTQLNAISVLYFDDSSNVILKKYRNMVVRACGCH
notes: as for B1
B16: BMP-7 variant Y128K (ligand)
chain: STGGKQRSQNRSKTPKNQEALRMASVAENSSSDQRQACKKHELYVSFRDLGWQDWIIAPEGYAAYYCEGECAFPLNSYMNATNHAIVQTLVHFINPETVPKPCCAPTQLNAISVLYFDDSSNVILKKKRNMVVRACGCH
notes: as for B1
B17: BMP-7 variant Y78P (ligand)
chain: STGGKQRSQNRSKTPKNQEALRMASVAENSSSDQRQACKKHELYVSFRDLGWQDWIIAPEGYAAYYCEGECAFPLNSPMNATNHAIVQTLVHFINPETVPKPCCAPTQLNAISVLYFDDSSNVILKKYRNMVVRACGCH
notes: as for B1

Assays:
[1] = target: T1, ActRIIa receptor-Fc fusion (UniProt P27037 20-134, limits assumed); test: ELISA-like plate assay, captured BMP-7 from conditioned media, receptor-Fc detection
T1 construct: BMP receptor-Fc fusion used at 5 ug/mL
T1 sequence (P27037 20-134 limits assumed): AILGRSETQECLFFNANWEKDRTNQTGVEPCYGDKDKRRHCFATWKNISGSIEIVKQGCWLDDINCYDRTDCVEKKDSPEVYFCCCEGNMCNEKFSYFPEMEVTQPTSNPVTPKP

[2] = target: T2, BMPRII receptor-Fc fusion (UniProt Q13873 27-151, limits assumed); test: as above
T2 construct: BMP receptor-Fc fusion used at 5 ug/mL
T2 sequence (looked up): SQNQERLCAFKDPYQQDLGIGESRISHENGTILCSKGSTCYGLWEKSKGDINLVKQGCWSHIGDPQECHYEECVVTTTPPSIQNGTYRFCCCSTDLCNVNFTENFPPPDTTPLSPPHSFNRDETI

[3] = target: T3, BMPRIa receptor-Fc fusion (UniProt P36894 24-152, limits assumed); test: as above
T3 construct: also called ALK-3
T3 sequence (P36894 24-152 limits assumed): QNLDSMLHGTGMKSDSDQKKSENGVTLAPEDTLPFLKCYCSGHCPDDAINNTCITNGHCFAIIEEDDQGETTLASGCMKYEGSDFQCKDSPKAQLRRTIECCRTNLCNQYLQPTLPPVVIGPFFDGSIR

[4] = target: T4, BMPRIb receptor-Fc fusion (UniProt O00238 14-126); test: as above
T4 construct: BMP receptor-Fc fusion used at 5 ug/mL; also called ALK-6
T4 sequence (looked up): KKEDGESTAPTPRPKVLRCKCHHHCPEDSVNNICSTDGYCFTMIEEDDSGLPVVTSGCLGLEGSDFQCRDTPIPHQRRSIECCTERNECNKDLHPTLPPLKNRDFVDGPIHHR

[5] = target: T5, ActRIIa receptor-Fc fusion (UniProt P27037 20-134, limits assumed); test: ELISA-like, fixed volume of conditioned media, receptor-Fc
T5 construct: BMP receptor-Fc fusion, detected with anti-human IgG-HRP
T5 sequence (P27037 20-134 limits assumed): as the sequence (P27037 20-134 limits assumed) above

[6] = target: T6, BMPRII receptor-Fc fusion (UniProt Q13873 27-151, limits assumed); test: as above
T6 construct: BMP receptor-Fc fusion, detected with anti-human IgG-HRP
T6 sequence (looked up): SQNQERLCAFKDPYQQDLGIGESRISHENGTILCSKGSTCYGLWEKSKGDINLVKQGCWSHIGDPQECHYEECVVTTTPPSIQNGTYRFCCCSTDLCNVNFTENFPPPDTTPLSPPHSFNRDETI

[7] = target: T7, BMPRIa receptor-Fc fusion (UniProt P36894 24-152, limits assumed); test: as above
T7 construct: BMP receptor-Fc fusion; also called ALK-3
T7 sequence (P36894 24-152 limits assumed): as the sequence (P36894 24-152 limits assumed) above

[8] = target: T8, BMPRIb receptor-Fc fusion (UniProt O00238 14-126); test: as above
T8 construct: BMP receptor-Fc fusion, detected with anti-human IgG-HRP; also called ALK-6
T8 sequence (looked up): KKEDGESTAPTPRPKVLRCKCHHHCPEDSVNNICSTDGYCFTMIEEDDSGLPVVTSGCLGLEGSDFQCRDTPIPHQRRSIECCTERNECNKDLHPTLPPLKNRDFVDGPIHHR

| Binder | ActRIIa binding (relative to wild type = 1.0) [1] | BMPRII binding (relative to wild type = 1.0) [2] | BMPRIa binding (relative to wild type = 1.0) [3] | BMPRIb binding (relative to wild type = 1.0) [4] | ActRIIa binding relative to wild type [5] | BMPRII binding relative to wild type [6] | BMPRIa binding relative to wild type [7] | BMPRIb binding relative to wild type [8] |
| --- | --- | --- | --- | --- | --- | --- | --- | --- |
| B1 | 0.41 relative to wild type | 0.82 relative to wild type | 0.35 relative to wild type | 0 relative to wild type |  |  |  |  |
| B2 |  |  |  |  | 0.84 relative to wt = 1.0 | 0.26 relative to wt = 1.0 | 0.54 relative to wt = 1.0 | 0.65 relative to wt = 1.0 |
| B3 |  |  |  |  | 0.88 relative to wt = 1.0 | 0.72 relative to wt = 1.0 | 0.67 relative to wt = 1.0 | 0.82 relative to wt = 1.0 |
| B4 |  |  |  |  | 1.02 relative to wt = 1.0 | 0.88 relative to wt = 1.0 | 0.74 relative to wt = 1.0 | 0.87 relative to wt = 1.0 |
| B5 |  |  |  |  | 0.99 relative to wt = 1.0 | 1 relative to wt = 1.0 | 1.03 relative to wt = 1.0 | 1.02 relative to wt = 1.0 |
| B6 |  |  |  |  | 0.98 relative to wt = 1.0 | 0.75 relative to wt = 1.0 | 0.74 relative to wt = 1.0 | 0.86 relative to wt = 1.0 |
| B7 | 1.07 relative to wild type | 1.47 relative to wild type | 1.36 relative to wild type | 1.34 relative to wild type |  |  |  |  |
| B8 | 1.58 relative to wild type | 1.77 relative to wild type | 1.29 relative to wild type | 2.75 relative to wild type |  |  |  |  |
| B9 | 0.36 relative to wild type | 0.25 relative to wild type | 1.09 relative to wild type | 1.33 relative to wild type |  |  |  |  |
| B10 |  |  |  |  | 0.53 relative to wt = 1.0 | 0.12 relative to wt = 1.0 | 0.3 relative to wt = 1.0 | 0.35 relative to wt = 1.0 |
| B11 | 0.45 relative to wild type | 1.46 relative to wild type | 2.05 relative to wild type | 1.81 relative to wild type |  |  |  |  |
| B12 | 2.26 relative to wild type | 3.13 relative to wild type | 1.36 relative to wild type | 2.39 relative to wild type |  |  |  |  |
| B13 | 1.93 relative to wild type | 2.72 relative to wild type | 1.05 relative to wild type | 2.01 relative to wild type |  |  |  |  |
| B14 | 1.63 relative to wild type | 2.66 relative to wild type | 0.87 relative to wild type | 2.4 relative to wild type |  |  |  |  |
| B15 | 1.2 relative to wild type | 1.52 relative to wild type | 1.75 relative to wild type | 2.17 relative to wild type |  |  |  |  |
| B16 | 1.11 relative to wild type | 1.78 relative to wild type | 1.4 relative to wild type | 1.57 relative to wild type |  |  |  |  |
| B17 | 0.92 relative to wild type | 0.85 relative to wild type | 0.75 relative to wild type | 0.69 relative to wild type |  |  |  |  |
